Measurements taken from US9012217B2, “Benzimidazole compounds differentiate a mammalian stem cell into mesodermal or cardiomyocyte cells” (Burnham Institute for Medical Research, priority 2008, dated 2015).

How the values were obtained:
[1] = test system: CGR8 mESCs stably transfected with eGFP under control of the alpha myosin heavy chain (aMHC) promoter; test: cardiomyocyte screening assay (aMHC-eGFP mESC differentiation, imaging); assay type: cell-based, mouse; details: structure IIA; activity relative to compound 28 = 100%
Description: The primary screen is conducted with CGR8 mESCs stably transfected with eGFP under control of the alpha myosin heavy chain (aMHC) promoter (Takahashi, et al., Circulation, 107(14):1912, 2003). The bioassay is run essentially as described (Bushway et al., Methods Enzymol, 414:300, 2006). Briefly, cells were seeded onto Greiner 384 well microclear bottom microtiter plates in ½ well volume at a density of ˜229 cells/mm2. […]
The optimal time to stop the differentiation is empirically determined to be at day 9 of differentiation, when cardiomyocytes appear in positive control cultures that have higher density cells or culture the cells in embryoid body (not monolayer) culture. […] Image quantification is done using a simple image subtraction routine that subtracted the red channel images from the green (eGFP) channel images to remove background signal from the eGFP images. […]
Follow-up confirmations and testing of hits for SAR were performed on the Hamilton STAR fluid handler with integrated Kendro Cytomat plate hotel and Kendro Cytomat plate incubators using the Hamilton STAR liquid handler robot. […] Image quantification is performed on captured TIFF images using the Developer Toolbox (GE/Amersham) with custom algorithms. […]

mESC = test: serum-free mESC cardiac differentiation assay (day 2 to day 4 exposure); assay type: cell-based, mouse; details: added alone, day 2 to day 4, serum free
Description: To define the point of action in more detail, a more focused assay is designed to probe the activities of the compounds between days 2-4 of differentiation. Of note is that the original assay is performed in the presence of serum, which activates many pathways that obscure the targets of the small molecules. Since serum activates many pathways and many genes, its presence confounds analysis of downstream targets. Thus, a serum-free mESC cardiac differentiation assay is set up to more precisely validate the activity of the compounds and determine if they acted independently or synergized with a known inducer. The refined assay, diagrammed in FIG. 4, tested the ability of the small molecules to stimulate mesodermal differentiation from day 2 to day 4. Differentiation is initiated by aggregating mESC into embryoid bodies (EBs) in serum free conditions. Day 2 EBs were dispersed in the presence of growth factors or small molecules to allow maximal exposure. Cells were allowed to re-aggregate into EBs until day 4 when they were dispersed and plated in conducive conditions for cardiac differentiation to day 9, at which point eGFP is imaged and quantified by the algorithm described above.
FIG. 5 summarizes experiments showing synergy with Activin/Nodal signaling.

Molecule: COc1nnc(Nc2ccc3c(c2)ncn3C2CC2)c2ccccc12 [Compound 104]
- Activity [1]: INACTIVE

B1: Activin A (protein, UniProt P08476 311-426, looked up)
Inhibin beta A chain: GLECDGKVNICCKKQFFVSFKDIGWNDWIIAPSGYHANYCEGECPSHIAGTSGSSLSFHSTVINHYRMRGHSPFANLKSCCVPTKLRPMSMLYYDDGQNIIKKDIQNMIVEECGCS
notes: "an inducer of anterior mesoderm and endoderm"
- cardiogenesis (cardiomyocytes at day 9) (mESC): efficient cardiogenesis

B2: BMP4 (protein, UniProt P12644 293-408, looked up)
Bone morphogenetic protein 4: SPKHHSQRARKKNKNCRRHSLYVDFSDVGWNDWIVAPPGYQAFYCHGDCPFPLADHLNSTNHAIVQTLVNSVNSSIPKACCVPTELSAISMLYLDEYDKVVLKNYQEMVVEGCGCR
notes: "posteriorizing growth factors such as BMP4"
- cardiogenesis (cardiomyocytes at day 9) (mESC): does not
